Data as given in paper PMC8512817.

Each substance was assayed against A9UPE9 PDZ (A9UPE9_MONBE PDZ domain, residues 7-98) (Monosiga brevicollis) (assay: fluorescence polarisation).

Ki | Substance
64 µM | A9UP44 peptide (QSESRL)
490 µM | A9UWP5_MONVE peptide (GSESSV)
460 µM | A9UXE1 peptide (QDETAL)
97 µM | A9V6G5_MONBE peptide (HRESTV)
580 µM | A9V7Z4 peptide (EDETAL)
95 µM | B1AR peptide (ASESKV)
330 µM | BPIX peptide (WDETNL)
240 µM | DLL1/DLL4 peptide (VIATEV)
97 µM | TYRP1 peptide (PNQSVV)
